Abundance fitness data for 38 variants are collected here from the Human Domainome abundance scans (Beltran et al. 2025).

B1: SAM and SH3 domain-containing protein 1, residues 630 to 700; numbered along this chain, O94885 (parent)
chain: GRPPQPKSVEDLLDRINLKEHMPTFLFNGYEDLDTFKLLEEEDLDELNIRDPEHRAVLLTAVELLQEYDSN

± gives the uncertainty stated by the source.

The variants in the series derive from B1. The series can be described thus: abundance fitness (aPCA) (normalised: wild type 0, dead -1); higher = more abundant; growth selection in yeast, the domain comes from the species named. The conditions noted are these: Homo sapiens.
Consider GRPPQPKSVEDLLDRINLKEHMPTFLFNGYEDLDTFKLLEEEDPDELNIRDPEHRAVLLTAVELLQEYDSN [L44P], for which the abundance fitness was -0.764 ± 0.073. With GRPPQPKSVEDLLDRINLKEHMPTFLFYGYEDLDTFKLLEEEDLDELNIRDPEHRAVLLTAVELLQEYDSN [N28Y] the figure was -0.208 ± 0.048; with GRPPQPKSVEDLLDRINLKEHMPTFLFRGYEDLDTFKLLEEEDLDELNIRDPEHRAVLLTAVELLQEYDSN [N28R], -0.607 ± 0.049; with GRPPQPKSVEDLLDRINLKEHMPTFLFFGYEDLDTFKLLEEEDLDELNIRDPEHRAVLLTAVELLQEYDSN [N28F], -0.426 ± 0.062. With GRPPQPKSVEDLLDRINLKEHMPTFLFNGYEDLDTFKLLEEEDLDELNIRDPEHRKVLLTAVELLQEYDSN [A56K] the figure was 0.265 ± 0.038. GIPPQPKSVEDLLDRINLKEHMPTFLFNGYEDLDTFKLLEEEDLDELNIRDPEHRAVLLTAVELLQEYDSN [R2I]: the abundance fitness was -0.011 ± 0.047. With GFPPQPKSVEDLLDRINLKEHMPTFLFNGYEDLDTFKLLEEEDLDELNIRDPEHRAVLLTAVELLQEYDSN [R2F] the figure was -0.21 ± 0.066; with GVPPQPKSVEDLLDRINLKEHMPTFLFNGYEDLDTFKLLEEEDLDELNIRDPEHRAVLLTAVELLQEYDSN [R2V], -0.472 ± 0.064.

Consider GRPPQPKSVEDLYDRINLKEHMPTFLFNGYEDLDTFKLLEEEDLDELNIRDPEHRAVLLTAVELLQEYDSN [L13Y], for which the abundance fitness is -0.905 ± 0.096. With GRPPQPKSVEDLKDRINLKEHMPTFLFNGYEDLDTFKLLEEEDLDELNIRDPEHRAVLLTAVELLQEYDSN [L13K] the figure was -0.715 ± 0.08; with GRPPQPKSVEDLLDRINLKEHMPTQLFNGYEDLDTFKLLEEEDLDELNIRDPEHRAVLLTAVELLQEYDSN [F25Q], -0.778 ± 0.078. On to GRPPQPKSVEDLLDRINLKEHMPTSLFNGYEDLDTFKLLEEEDLDELNIRDPEHRAVLLTAVELLQEYDSN [F25S], for which the abundance fitness is -0.706 ± 0.056. Regarding GRPPQPKSVEDLLDRINLKEHMPTVLFNGYEDLDTFKLLEEEDLDELNIRDPEHRAVLLTAVELLQEYDSN [F25V], the abundance fitness was -0.758 ± 0.063. Consider GRPPQPKSVEDLLDRINLKEHMPTYLFNGYEDLDTFKLLEEEDLDELNIRDPEHRAVLLTAVELLQEYDSN [F25Y], for which the abundance fitness is -0.893 ± 0.091. With GRPPQPKSVEDLLDRINLKEHMPTFLFNGYEDLDTFKLLEEEDLDELNHRDPEHRAVLLTAVELLQEYDSN [I49H] the figure was -0.784 ± 0.068; with GRPPQPKSVEDLLDRINLKEHMPTFLFNGYEDLDTFKLLEEEDLDELNWRDPEHRAVLLTAVELLQEYDSN [I49W], -0.823 ± 0.081; with NRPPQPKSVEDLLDRINLKEHMPTFLFNGYEDLDTFKLLEEEDLDELNIRDPEHRAVLLTAVELLQEYDSN [G1N], 0.17 ± 0.082. In the case of KRPPQPKSVEDLLDRINLKEHMPTFLFNGYEDLDTFKLLEEEDLDELNIRDPEHRAVLLTAVELLQEYDSN [G1K], the abundance fitness stood at 0.163 ± 0.096. With GRPPQPKSVEDLLDRINLKEHMPTFLFNGYEDLDTEKLLEEEDLDELNIRDPEHRAVLLTAVELLQEYDSN [F36E] the figure was -0.678 ± 0.097; with GRPPQPKSVEDLLDRINLKEHMPTFLFNGYEDLDTFKLLEEEDLDELNIRDPEHRAVLLTAVELLQECDSN [Y68C], 0.105 ± 0.051; with GRPPQPKSVEDLLDRINLKEHMPTFLFNGYEDLDTFKLLEEEDLDELNIRDPEHRAVLLTAVELLQEVDSN [Y68V], -0.038 ± 0.043.

As for GRPPQPKSVEDLLDRINLKEHMPTFLFNGYEDLDTFKLLEEEDLDELNIRDPEHRAVLLTAVELLQEPDSN [Y68P], the abundance fitness was 0.015 ± 0.047.

As for GRPPQPKSVEDLLDRINLKEHMPTFLFNGYEDLDTFKLLEEEDLDELNIRDPEHRAVLLTAVELLQEYDFN [S70F], the abundance fitness was -0.508 ± 0.23. For the variant GRPPQPKSVEDLLDRINLKEHMPWFLFNGYEDLDTFKLLEEEDLDELNIRDPEHRAVLLTAVELLQEYDSN [T24W], the abundance fitness is -0.892 ± 0.095.

For the variant GRPPQPKSVEDLLDRINLKEHMPTFLFNGYEDLDTFKLLEEEDLDELNIRDPERRAVLLTAVELLQEYDSN [H54R], the abundance fitness is -0.823 ± 0.053. To GRPPQPKSVEDLLDRINLKEHMPTFLFNGYEDLDTFKLLEEEDLDELNIRDPQHRAVLLTAVELLQEYDSN [E53Q] belongs -0.051 ± 0.049; to GRPPQPKSVEDPLDRINLKEHMPTFLFNGYEDLDTFKLLEEEDLDELNIRDPEHRAVLLTAVELLQEYDSN [L12P], -0.916 ± 0.093; to GRPPQPKSVEDLLDRINLKEHMPTFLFNGYEDLDTFKLLEEEDLDELNIRDPEHRAVLLTAVESLQEYDSN [L64S], 0.31 ± 0.033.

On to GRPPQPKSVEDLLDRINLKEHMPTFLFNGYEDLDTFKLLEENDLDELNIRDPEHRAVLLTAVELLQEYDSN [E42N], for which the abundance fitness is -0.094 ± 0.046. For the variant GRPPQPKSVADLLDRINLKEHMPTFLFNGYEDLDTFKLLEEEDLDELNIRDPEHRAVLLTAVELLQEYDSN [E10A], the abundance fitness was -0.145 ± 0.046. With GRPPQPKSVPDLLDRINLKEHMPTFLFNGYEDLDTFKLLEEEDLDELNIRDPEHRAVLLTAVELLQEYDSN [E10P] the figure was -0.357 ± 0.05; with GRPPQPKSVEDLLDMINLKEHMPTFLFNGYEDLDTFKLLEEEDLDELNIRDPEHRAVLLTAVELLQEYDSN [R15M], 0.142 ± 0.042; with GRPPQPKSVEDLLDRINLKEHMPTFLFNGYEDLDTFKLLEEEDLDELNIRDPEHRAVLLTAVQLLQEYDSN [E63Q], -0.018 ± 0.046.

For the variant GRPPQPKSVEDLLDRINLKEHMPTFLFNGYEDLDTFKLLEEEDLDELNIRDPEHRAVLLTAVSLLQEYDSN [E63S], the abundance fitness was found to be 0.004 ± 0.034. With GRPPQPKSVEDLLDRINLKEHMPTFLFNGYEDLDTFKLLEEEDLDELNIRDPEHRAVLLTAVNLLQEYDSN [E63N] the figure was -0.066 ± 0.043; with GRPPQPKSYEDLLDRINLKEHMPTFLFNGYEDLDTFKLLEEEDLDELNIRDPEHRAVLLTAVELLQEYDSN [V9Y], -0.883 ± 0.087; with GRPPQPKPVEDLLDRINLKEHMPTFLFNGYEDLDTFKLLEEEDLDELNIRDPEHRAVLLTAVELLQEYDSN [S8P], -0.758 ± 0.087. To GRPPQPKSVEDLLDRINLKEHMPTFLFNGYEDLDTFKALEEEDLDELNIRDPEHRAVLLTAVELLQEYDSN [L38A] belongs -0.063 ± 0.04.
